Source: US20090271896A1 (SAMUEL ROBERTS NOBLE FOUNDATION, published 2009)

Legend:
[1] = target: T1, NbVIP2 (N. benthamiana VIP2) in pGAD424 (Nicotiana benthamiana, UniProt Q52JK6 1-603); test: yeast two-hybrid, growth on triple dropout (-Leu/-Trp/-His) plates
T1 construct: also called pGAD-NbVIP2; GenBank DQ000202
T1 sequence: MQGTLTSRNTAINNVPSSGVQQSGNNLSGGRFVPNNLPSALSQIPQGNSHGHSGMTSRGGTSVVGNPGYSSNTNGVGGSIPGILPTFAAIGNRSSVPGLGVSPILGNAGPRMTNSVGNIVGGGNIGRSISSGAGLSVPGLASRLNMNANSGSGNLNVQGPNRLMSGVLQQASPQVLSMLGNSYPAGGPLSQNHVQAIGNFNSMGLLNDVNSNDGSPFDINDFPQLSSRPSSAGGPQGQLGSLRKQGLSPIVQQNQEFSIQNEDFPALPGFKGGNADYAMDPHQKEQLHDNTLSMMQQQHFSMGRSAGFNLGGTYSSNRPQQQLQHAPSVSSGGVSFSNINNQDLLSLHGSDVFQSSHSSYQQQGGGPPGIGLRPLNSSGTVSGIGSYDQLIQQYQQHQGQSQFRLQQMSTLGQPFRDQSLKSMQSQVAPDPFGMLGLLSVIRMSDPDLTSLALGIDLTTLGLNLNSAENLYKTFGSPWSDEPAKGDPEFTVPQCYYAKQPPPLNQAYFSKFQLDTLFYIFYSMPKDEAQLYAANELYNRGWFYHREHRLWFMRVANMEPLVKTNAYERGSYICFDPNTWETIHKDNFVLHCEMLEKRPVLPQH

[2] = target: T2, AtVIP2 (Arabidopsis VirE2-Interacting Protein 2), largest cDNA clone in pGAD424 (Arabidopsis thaliana, UniProt Q9FPW4 59-614); test: yeast two-hybrid, HIS3 and beta-galactosidase reporters
T2 construct: also called At5g59710; GenBank AF295433
T2 sequence: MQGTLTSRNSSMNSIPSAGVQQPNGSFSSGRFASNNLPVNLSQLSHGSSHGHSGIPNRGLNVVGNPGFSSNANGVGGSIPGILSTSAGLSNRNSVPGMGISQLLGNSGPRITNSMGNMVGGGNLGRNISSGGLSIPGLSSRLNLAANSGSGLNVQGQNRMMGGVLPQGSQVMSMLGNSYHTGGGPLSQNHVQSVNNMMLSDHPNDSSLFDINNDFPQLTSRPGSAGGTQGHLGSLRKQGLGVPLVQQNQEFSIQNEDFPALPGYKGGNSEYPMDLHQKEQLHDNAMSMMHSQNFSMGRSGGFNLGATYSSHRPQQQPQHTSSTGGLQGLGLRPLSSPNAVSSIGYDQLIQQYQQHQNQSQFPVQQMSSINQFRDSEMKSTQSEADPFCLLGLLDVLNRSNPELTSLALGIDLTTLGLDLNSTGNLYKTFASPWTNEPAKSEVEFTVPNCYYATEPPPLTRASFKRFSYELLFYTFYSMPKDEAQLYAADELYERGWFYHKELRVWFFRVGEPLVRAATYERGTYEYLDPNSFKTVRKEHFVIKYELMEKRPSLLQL

B1: human lamin C (other)
chain: SEEVVSREVSGIKAAYEAELGDARKTLDSVAKERARLQLELSKVREEFKELKARNTKKEGDLIAAQARLKDLEALLNSKEAALSTALSEKRTLEGELHDLRGQVAKLEAALGEAKKQLQDEMLRRVDAENRLQTMKEELDFQKNIYSEELRETKRRHETRLVEID
notes: also called pSTT-LaminC
Does B1 bind [1]?
Result: no binding

Does B1 bind [2]?
Result: no binding
